Source: IntAct's records for PubMed 17572682

B1: Protein CBFA2T1 (Homo sapiens), Q06455 (parent)
chain: MISVKRNTWRALSLVIGDCRKKGNFEYCQDRTEKHSTMPDSPVDVKTQSRLTPPTMPPPPTTQGAPRTSSFTPTTLTNGTSHSPTALNGAPSPPNGFSNGPSSSSSSSLANQQLPPACGARQLSKLKRFLTTLQQFGNDISPEIGERVRTLVLGLVNSTLTIEEFHSKLQEATNFPLRPFVIPFLKANLPLLQRELLHCARLAKQNPAQYLAQHEQLLLDASTTSPVDSSELLLDVNENGKRRTPDRTKENGFDREPLHSEHPSKRPCTISPGQRYSPNNGLSYQPNGLPHPTPPPPQHYRLDDMAIAHHYRDSYRHPSHRDLRDRNRPMGLHGTRQEEMIDHRLTDREWAEEWKHLDHLLNCIMDMVEKTRRSLTVLRRCQEADREELNYWIRRYSDAEDLKKGGGSSSSHSRQQSPVNPDPVALDAHREFLHRPASGYVPEEIWKKAEEAVNEVKRQAMTELQKAVSEAERKAHDMITTERAKMERTVAEAKRQAAEDALAVINQQEDSSESCWNCGRKASETCSGCNTARYCGSFCQHKDWEKHHHICGQTLQAQQQGDTPAVSSSVTPNSGAGSPMDTPPAATPRSTTPGTPSTIETTPR

Variants of: B1
Details: with ncor1_human NCOR1, O75376
ncor1_human NCOR1, O75376, sequence (O75376 whole entry): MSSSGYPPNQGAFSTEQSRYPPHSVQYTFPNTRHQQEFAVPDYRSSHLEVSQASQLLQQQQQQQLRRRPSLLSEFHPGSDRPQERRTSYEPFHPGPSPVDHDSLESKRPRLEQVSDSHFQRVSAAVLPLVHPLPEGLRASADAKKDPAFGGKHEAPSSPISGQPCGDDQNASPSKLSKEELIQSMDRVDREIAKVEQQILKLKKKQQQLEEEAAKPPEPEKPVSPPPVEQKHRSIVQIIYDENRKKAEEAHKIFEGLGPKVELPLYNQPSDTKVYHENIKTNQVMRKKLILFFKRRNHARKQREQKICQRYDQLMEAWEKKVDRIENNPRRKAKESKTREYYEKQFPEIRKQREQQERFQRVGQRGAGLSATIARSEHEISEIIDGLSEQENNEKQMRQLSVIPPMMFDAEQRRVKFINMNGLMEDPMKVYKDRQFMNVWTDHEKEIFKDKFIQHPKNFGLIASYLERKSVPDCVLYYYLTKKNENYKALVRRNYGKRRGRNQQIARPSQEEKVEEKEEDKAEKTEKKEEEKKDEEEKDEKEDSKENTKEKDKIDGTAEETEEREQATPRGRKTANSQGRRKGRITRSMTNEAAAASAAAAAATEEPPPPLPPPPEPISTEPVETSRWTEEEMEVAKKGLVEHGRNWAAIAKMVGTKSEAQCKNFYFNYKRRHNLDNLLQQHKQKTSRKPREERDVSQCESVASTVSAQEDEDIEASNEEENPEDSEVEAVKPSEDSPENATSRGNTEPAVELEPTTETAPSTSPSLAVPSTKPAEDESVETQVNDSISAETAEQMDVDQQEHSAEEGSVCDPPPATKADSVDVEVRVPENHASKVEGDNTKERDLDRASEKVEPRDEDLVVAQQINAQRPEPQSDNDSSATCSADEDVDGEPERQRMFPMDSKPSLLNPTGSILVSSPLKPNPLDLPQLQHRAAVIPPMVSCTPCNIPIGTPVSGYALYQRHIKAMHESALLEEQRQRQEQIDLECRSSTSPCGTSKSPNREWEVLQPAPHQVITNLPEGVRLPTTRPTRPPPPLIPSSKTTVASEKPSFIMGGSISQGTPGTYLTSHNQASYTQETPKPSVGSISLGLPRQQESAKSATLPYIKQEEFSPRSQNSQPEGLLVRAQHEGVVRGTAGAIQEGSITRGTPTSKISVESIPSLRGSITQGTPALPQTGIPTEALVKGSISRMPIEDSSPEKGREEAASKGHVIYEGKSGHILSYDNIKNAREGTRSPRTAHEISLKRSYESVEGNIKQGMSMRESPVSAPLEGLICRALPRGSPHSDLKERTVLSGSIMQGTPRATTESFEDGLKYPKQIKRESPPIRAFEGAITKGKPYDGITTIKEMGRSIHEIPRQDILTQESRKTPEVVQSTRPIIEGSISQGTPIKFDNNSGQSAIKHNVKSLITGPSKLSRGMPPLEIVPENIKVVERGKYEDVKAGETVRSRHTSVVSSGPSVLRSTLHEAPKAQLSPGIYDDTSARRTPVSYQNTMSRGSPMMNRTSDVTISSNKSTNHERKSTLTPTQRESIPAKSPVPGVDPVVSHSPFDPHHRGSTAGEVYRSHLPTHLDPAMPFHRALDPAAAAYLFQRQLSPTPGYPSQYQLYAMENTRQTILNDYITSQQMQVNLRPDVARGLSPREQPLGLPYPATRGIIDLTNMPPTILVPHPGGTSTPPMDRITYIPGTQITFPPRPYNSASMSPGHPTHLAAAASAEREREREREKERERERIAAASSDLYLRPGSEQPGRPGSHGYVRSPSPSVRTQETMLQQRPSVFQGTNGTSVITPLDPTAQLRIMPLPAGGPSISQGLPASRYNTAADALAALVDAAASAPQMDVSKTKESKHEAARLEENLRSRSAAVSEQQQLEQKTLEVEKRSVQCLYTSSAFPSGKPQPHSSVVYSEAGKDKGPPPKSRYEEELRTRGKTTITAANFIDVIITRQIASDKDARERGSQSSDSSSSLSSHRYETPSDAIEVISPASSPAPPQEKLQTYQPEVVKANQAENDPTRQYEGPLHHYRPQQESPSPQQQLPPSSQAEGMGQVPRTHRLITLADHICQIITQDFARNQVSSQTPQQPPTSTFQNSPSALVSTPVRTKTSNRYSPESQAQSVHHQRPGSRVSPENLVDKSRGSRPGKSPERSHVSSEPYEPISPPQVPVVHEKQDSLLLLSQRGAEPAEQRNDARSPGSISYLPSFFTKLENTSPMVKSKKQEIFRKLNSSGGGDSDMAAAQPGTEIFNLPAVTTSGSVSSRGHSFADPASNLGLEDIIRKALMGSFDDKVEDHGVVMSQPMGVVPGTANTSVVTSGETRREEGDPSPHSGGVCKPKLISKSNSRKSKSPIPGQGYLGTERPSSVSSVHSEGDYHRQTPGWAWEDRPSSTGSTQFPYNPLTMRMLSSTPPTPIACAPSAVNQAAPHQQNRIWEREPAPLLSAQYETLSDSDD
With F129K the “effect of a mutation on the interaction” value was “decreasing interaction”.
With F136A the “effect of a mutation on the interaction” value was “decreasing interaction”.
Q170A was tested, and the “effect of a mutation on the interaction” value was “decreasing interaction”.
L177A was tested, and the “effect of a mutation on the interaction” value was “decreasing interaction”.
With T173Q the “effect of a mutation on the interaction” value was “decreasing interaction”.
For F175A, the “effect of a mutation on the interaction” value was “decreasing interaction”.
